Source: IntAct's records for PubMed 18570893

Target: call3_human CALML3 (UniProt P27482)
Sequence (P27482 whole entry): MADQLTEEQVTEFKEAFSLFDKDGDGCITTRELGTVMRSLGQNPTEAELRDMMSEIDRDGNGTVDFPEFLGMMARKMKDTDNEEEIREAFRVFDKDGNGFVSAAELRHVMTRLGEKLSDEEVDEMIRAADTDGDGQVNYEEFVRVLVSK

Unconventional myosin-X (Homo sapiens), Q9HD67 F795A
effect of a mutation on the interaction: disrupting interaction
